Measured values: the supplement of paper PMC9732359
± gives the uncertainty stated by the source.

test: protein stability index of a GFP-peptide fusion (yeast GPS) (PSI 1-4); higher = more stable; sorted into four equal gates, so the index is relative within each strain; details: pdr5∆
Outline: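 Yeast carrying a pooled library were grown to mid-log phase in leucine-free medium. Each library plasmid expresses Cherry and has a tiled 17-residue yeast protein peptide fused downstream of GFP. Cells were sorted into four equal gates by GFP/Cherry ratio, and plasmids from each gate were PCR-amplified, Illumina-sequenced and assigned to strains by barcode. Summing, across gates, the read frequency times the gate number gave each peptide's protein stability index.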

Sequence	protein stability index
NQEDLFELVHHFFQIDG [YML103C/NUP188]	3.04 ± 0.065
NQLDGFDDRGDVKVIMA [RPT2]	3.44 ± 0.27
NQNSDMKKKLELISYRN [SRB8]	3.04 ± 0.059
NQVTDSSQLNKLTDEQS [SIR3]	2.74 ± 0.069
NRAEGPEELARILQQLK [RGR1]	3.17 ± 0.19
NRDRSFQLLEPLSTYNK [PGD1]	2.95 ± 0.062
NREAATKEVESNIITKS [DIS3]	2.94 ± 0.064
NRRLVYSRILKSMGRKC [YCG1]	1.17 ± 0.084
NRSAYDSKNTPNVFDKD [YDL088C/ASM4]	2.72 ± 0.075
NRSWDHAYNITFNNQDK [RPO31]	2.82 ± 0.061
NRWHSESWANQLTVCGA [FAS2]	1.87 ± 0.053
NSAQNNSTTSGGLFGNK [YGR119C/NUP57]	2.91 ± 0.13
NSDDCMMEEIINVVIKA [ECM29]	3.67 ± 0.18
NSDLEGKIRGVEDDLVT [SMC2]	3.33 ± 0.064
NSEKFVFLLTTRAGGLG [ISW2]	1.4 ± 0.13
NSFKLFKAEKLQIVNQL [RPC17]	2.32 ± 0.076
NSFTKGNVFSPIDNNII [SNU114]	2.92 ± 0.074
NSGVGSAKGPEIIPLQD [MED6]	3.21 ± 0.088
NSKVDMKYDIFAKFIHH [IRR1]	2.15 ± 0.077
NSKVNKLNIETMRKISS [DSN1]	2.43 ± 0.11
NSLTKYPDLKAFHNNLK [MED1]	3.16 ± 0.089
NSLTVDGNNANYIYAGY [RPN14]	2.55 ± 0.078
NSNPTSNVFGSNNSTTN [YJL041W/NSP1]	3.43 ± 0.086
NSPNYFVAKLAAQIFGS [COR1]	2.02 ± 0.061
NSQTVSGTPITQTESKK [SNF2]	2.27 ± 0.05
NSTTSGGLFGNKVGSTG [YGR119C/NUP57]	3.47 ± 0.19

Sequence	protein stability index
NSYWLIILLGVLEDCRH [ITC1]	1.53 ± 0.048
NTCYLNATLQALYRVND [UBP6]	2.59 ± 0.069
NTGPSTGGLFGAKPAGS [YGL172W/NUP49]	3.32 ± 0.11
NTIGSVHGKAPMLMANN [SSN3]	1.54 ± 0.11
NTNNNDTIATSATPNAA [GAL11]	2.88 ± 0.046
NTSLPPSILEDSLENNE [FAS1]	2.98 ± 0.11
NTTLQDNVSFIEEAKSI [REC8]	3.22 ± 0.091
NVDRLYKLNVRSNDPQS [NUT2]	3.2 ± 0.084
NVEKYPTFVEFILIPLY [SNU114]	2.46 ± 0.054
NVELLNCIRILADKLEN [YIL149C/MLP2]	1.36 ± 0.074
NVESAGAMTPEEIFFKS [RPC40]	3.31 ± 0.085
NVIKTGIRIISLTYKKI [RPN3]	2.25 ± 0.081
NVISSKDWELEARFWHL [YDL116W/NUP84]	3.32 ± 0.062
NVKEEETVAKSKNAERK [RPS8A]	3.09 ± 0.035
NVLIGGYDKKKNKPELY [PRE1]	2.53 ± 0.27
NVLNQIHQILLPTNPTL [CSE2]	2.74 ± 0.037
NVVIDEAVEIPVNSADG [SME1]	3.35 ± 0.068
NVVLVTNDRLNREAATK [DIS3]	2.9 ± 0.088
NWWHSEFEIPVSFNGFK [BRR2]	1.32 ± 0.068
NYESVFTYNKFLLNQNK [YIL149C/MLP2]	1.92 ± 0.049
NYGEKEERKRWAMQGIS [PCI8]	2.52 ± 0.24
NYSSLPSPYKTTVYRYS [YAR002W/NUP60]	2.27 ± 0.038
PAALDGLMKSYKIPKVM [ESC2]	2.94 ± 0.12
PAANESEVANNGLIISW [RRP42]	1.49 ± 0.052
PAFSFGTKSNEKKDSGS [YJL041W/NSP1]	3.46 ± 0.075
PAGKQVEISLVNGAKNL [FAS1]	3.23 ± 0.23

Sequence	protein stability index
PAGMNETPKSNNSLSYH [ITC1]	3.22 ± 0.12
PAINYTKLKNAVQNESV [QCR2]	1.79 ± 0.059
PAPSIPSTGFKFSLPFE [YLR335W/NUP2]	2.94 ± 0.072
PAPSKPVIDYELKEITS [BRR2]	3.2 ± 0.081
PARSSSLRSNVVVAETS [YAR002W/NUP60]	2.62 ± 0.04
PAWFNNPRKRAIPNSII [YMR153W/NUP53]	2.94 ± 0.083
PCNNRGKHSIGLIWYLL [RPS0A]	2.37 ± 0.054
PDMMVDSFTMPNISHSN [SNF2]	2.84 ± 0.098
PDSCNMQEKAAHIAKNL [YCS4]	1.55 ± 0.2
PDTAIDSQMDEASGTPD [GRR1]	3.06 ± 0.071
PDTKISSAAILGLGIAF [RPN1]	2.3 ± 0.058
PELLDSLAILGMNLLSN [SWI1]	2.21 ± 0.073
PENLQVTSEKYPFDKLE [BRR2]	3.07 ± 0.093
PEVVELCQKSPVMADLN [FAS2]	2.69 ± 0.078
PFDKKSNSALFRAVGEG [FAS1]	2.92 ± 0.082
PFDMGGYFIINGSEKVL [RPB2]	2.28 ± 0.14
PFMSYSPQLTAIIGLKS [SNF12]	2.16 ± 0.062
PFNFTVTLFQMAILLLY [CDC53]	1.59 ± 0.045
PFPQYPAGMNETPKSNN [ITC1]	2.8 ± 0.14
PGGASGLGVLTHRNKDG [FAS1]	2.74 ± 0.081
PGGYFIVNGTEKVILVQ [RET1]	1.67 ± 0.1
PGIISITSLQDSSSQCI [YMR129W/POM152]	3.04 ± 0.074
PGLEFLDDTTIPVGLMA [MCD1]	2.71 ± 0.059
PGRIDRKILFENPDLST [RPT2]	3.52 ± 0.28
PGTGKTLLARAVAHHTD [RPT6]	2.76 ± 0.06
PGVNREINSEMCHIVRK [GRR1]	3.05 ± 0.082

Sequence	protein stability index
PGWDFETEEIDPELLRS [RPL5]	3.19 ± 0.081
PIEVDEELLQLFLNNFV [IRR1]	2.86 ± 0.071
PIKEAKIKHGSVTEIPL [YMR129W/POM152]	3 ± 0.046
PIMLRSKNCYLSEATES [RPB2]	1.46 ± 0.11
PINGNEAESQWYIEKVI [CSI1]	2.88 ± 0.078
PINLHPSKLVITKLHLD [RPL26A]	2.2 ± 0.045
PIQSKVFHAAFEGDSNM [BRR2]	3.02 ± 0.051
PITASMAAALPNPTPSM [PGD1]	2.54 ± 0.066
PITNKERSLAVKYINFG [RPC31]	3.11 ± 0.16
PIVEDRRVKQLDDITDS [SIR4]	1.49 ± 0.19
PIVLLNTLRKCYPQFAE [UBP6]	1.26 ± 0.073
PIYYQKLKHMVLDKMHA [RET1]	2.03 ± 0.088
PKATSSAGAVFKSSVEM [YOR098C/NUP1]	1.86 ± 0.11
PKDSSSTFREWKNLVLK [YJR042W/NUP85]	2.76 ± 0.12
PKEEEPILAPSVKDYRP [RPS3]	2.86 ± 0.079
PKIETNVYVGMTDMQIQ [ISW2]	2.99 ± 0.091
PKNVPTSKWLNSITSGG [YDL116W/NUP84]	2.56 ± 0.068
PKPLKFLRPTYPDLCSI [RPN1]	2.69 ± 0.067
PKSGIDIFVYLTYDKDL [MTR3]	1.58 ± 0.052
PKSLNSNININVNNNNI [SWI1]	2.63 ± 0.12
PKTELTKGDSTPVQPDL [YAR002W/NUP60]	3.14 ± 0.067
PLIIVSDGQSRVKDIHL [RET1]	3.58 ± 0.24
PLIKKIKYEPRFEKAVK [SMC3]	2.72 ± 0.098
